Drawing on article PMC10864337, this text covers GTPase activity (malachite green) with cardiolipin-containing nanotubes; not stimulated and stoichiometry N for 1 substance.

In assay [1] the target is Drp1 Y493A (isoform 1) (human) (UniProt O00429).
Assay [2] has the same target. Kind of assay: SEC-MALS; 5 µM Drp1 injected onto a Superose 6 10/300GL column. For orientation: Size exclusion chromatography separates by hydrodynamic size, large species first.

Usually stoichiometry N stands for the number of molecules, sites or subunits per partner or assembly. “Drp1 Y493A (isoform 1) (from UniProt O00429-1 1-736) (natural protein)” had a GTPase activity (malachite green) with cardiolipin-containing nanotubes; not stimulated in assay [1] of 1.2 min⁻¹. This substance also returned a stoichiometry N in assay [2] of 2.
